Measurements published in the DeepSol protein solubility set.

Experiment: soluble on expression in E. coli; label from the status in PepcDB or PDB records

| Sequence | soluble on expression in E. coli |
| --- | --- |
| MGSDKIHHHHHHMKRINCFIPYGKIEATRQTVAQLAESSLVSQIYLITDDPHAKAIYPCNLIRTENIWSTKTLREIAGYASAHYTLIYTKTEELQLGMYALERFVAIADDTRSGMVYSDYYEKKEGKLNPHPVIDYQKGSLRDDFNFGSLLLYRSSTLQNAIASMDTEYTFAGLYDLRLKVSQNAPLTHINEYLYTEVENDLRKSGEKMFDYVDPKNRSVQIEMEAACTDHLKMIGGYLPPHFKPVRFDEQTFQTEASVIIPVRNRVRTIEDAIRSVLRQEASFPFNLIIIDNHSTDGTSERIQAIAATDLRIIHIQPERDDLGIGGCWNIGIHHSACGKFAIQLDSDDVYSDEHTLRKIVEAFYEQRCAMVVGTYRMTDFDMRTIPPGIIDHKEWTPENGRNNALRINGLGAPRAFYTPLLRKLNLPNTSYGEDYALGLRISREYPIGRIYDVLYLCRRWEDNSDASLDVVKMNNHNIYKDKIRTWELEARLNMERQ | not soluble |
| MDHPVQLSIENPAVSMDSTGQILWAVQSEIQAVYLRSLFEQKEANDGERLTLSVKNLGSSEISPQTLAHSSNGHFFMACGDGKYIVYTYKQYDAIALKIRHYGQGLEFVWAAHPNMFAVRESATNVKIKKNFKDHKSIRSDMMLEGISGGPLLALRSNDSLCFFDWESAALVRRIEITSKSVYWSDNREMVAICGDDSFYVFKYSAEAVANATEVTEDGIEDAFKVIGEQAEAVETGFWIGDCFIFTTALTINRINHYAGGEIVTVAHVDRPLCLLGYMAEDSRVYAVDKDLNVISYELFQSDLEYQTATMRRDIGTRGGPQICRICRLPSSANLPNLPSTANFKKVDLPNLPSSANFEICRTQYNFD | not soluble |
| MSLLFYVAYLGFYIAPTKLVRNKIKSWLLNASEYDFTDIKEGIRLHLNESPFEPPQFIIDAVKMYLSKGNRYQHPDLLEKYRELAAEYSKVEPENIYPSVGADGSIRAIFYNLVEPGDTILTNYPSYSMYSVYSSVRGTKVIKVNLKEDNEWWKENTDDLLAQAEKVELVIIDDPNNPTGSPMLNGKKELIGQLAENTKGFVVIDEAYYEFGGYTVSPYIYDYPNVLVVRTLSKAFSLASYRLGYTIANEEIVKALMKSSTPFDIPLPSLIAGITALENPSYIKDVVNIVNRNREILYQGLKNLNLKVYKSITNFLLIKDNRNLQEMLMRHGIAIRKLYDNFYRITIGTEDQCKMVIDKLGEELENSNSEGHHHHHH | not soluble |
| MGSDKIHHHHHHMISEYEDIGLHNTCSEDGSFDVVLDSITNIAKYGMGIIAGVFIDMYSIIGNTDSKTIYTVRKGTLADYNARIIARSISGQVINTDPDTVVKMAEEGHMGLVGNEVQVGISYAEFAERLGIYAASCLIAARDQSFRSVLDQYQKGIEFIARNPEVSAEIISRKSNYYDEKTMKRIIGIYRHRLTTLRSDLERSISVYSAVEPSVYRLKILG | not soluble |
| MILDYIYHSGFAIEAEGVTLIIDYYKDSSETELNKGIVHDRLLQRPGKLYVLASHFHPDHFNREVLTWKEQRPDIIYIFSKDILKHHRAQKEDAIYINKGEEYEDDMLRIQAFGSTDVGISFLIHLQGKSIFHAGDLNNWHWSEESTEQEIRKAEGDFLAEIKYLQAAVPTIDLVMFPVDRRMGKDYMKGAQQFIERIKTTIFVPMHFSEDYEGGNAFRSIAEAGGCRFITITHRGESFDI | not soluble |
| MGSDKIHHHHHHMKHYQTIIIGAGAAGIGFGSAMQRLGLTNFLIIEKGHIGESFLRWPRTTQFITPSFTTNGFGFPDLNAVIPDTSPAFSFEKEHLSGVEYARYLQLVAAHYNLPIQNETSVLSIDKRDSLFVIKTSKGDFSADYLIMATGEFQNPNTIDIKGADLGMHYGQVDNFHIKSDNPFIIIGGNESACDALTHLVYLGNQVELYTDTFGRKESNPDPSISLSPLTKERLKHIQDHKKEYYSISEGKKAIEIKQIGKQYQVTFDDGSTAESFHKPILSTGFLNTCHLIDGIALFEYDKNQLPIVTEDDESTIVNNCFLIGPSLRQRDTIFCYIYKFRQRFVPVINHIAQREGIILDEDTLEFFKENQMYLDNLACCDVNCDC | not soluble |
| SIDKNFWQGKRVFVTGHTGFKGSWLSLWLTEMGAIVKGYALDAPTVPSLFEIVRLNDLMESHIGDIRDFEKLRSSIAEFKPEIVFHMAAQPLVRLSYEQPIKTYSTNVMGTVHLLETVKQVGNIKAVVNITSDKCYDNREWVWGYRENEPMGGYDPYSNSKGCAELVASAFRNSFFNPANYEQHGVGLASVRAGNVIGGGDWAKDRLIPDILRSFENNQQVIIRNPYSIRPWQHVLEPLSGYIVVAQRLYTEGAKFSEGWNFGPRDEDAKTVEFIVDKMVTLWGDDASWLLDGENHPHEAHYLKLDCSKANMQLGWHPRWGLTETLSRIVKWHKAWIRGEDMLICSKREISDYMSATTR | soluble |
| MGSDKIHHHHHHMIKCIDVNDLKVGMYIHDLNCDWMSHPFLVNRFKVKDESEIRKIADAGIHEVYIDTRKGMDLPSARSEGEVRKQLESELREIASRERTVTRHVEAAEEFGRAQTIHHEANQIIRDILQDVRLGKQVELEQVEPQVEKLTGSILRNGGALLSLCRIKDKDNYTFQHSVSVGALMVSFCNALGMSKEVIHHAGIGGMLHDIGKMKVPDSILNKPGKLTEQEFMVMKCHVVESQKILHATRGISETAVLVAGQHHERHDGSGYPAGLKGEEISQLGQMAAIVDVYDALTSNRCYHKGMPPTDALRKIYEWSKFHFNPELVQAFMRVIGIYPVGTLVRLESGRLGVVVEQNEDNLVSPKVKVFFSTKSNTHIPPEVVDLSRRMGFGGGDRIVKHESPEKWKIDPLRFL | not soluble |
| MSLKKSLATIRAEERNYFQSPKWFCDFVEKPIQGLEREEGVHRRDPSSIIKVDNLYYVYYTKSYGPHVGFNTGDLNAKVFPWDYSEIWVATSEDGYVWEEKGVAVTRGEAGRYDDRSVFTVEVMKYDGKYYLVYQTVQHPYVNRSFENIAIAWSDNPLGPFQKSDEPILRPTGDGIWDTEEDNRFLVKKKGSFDSHKVHDPLLFHYRDKFYLYYKGEPMGEEIFMGGRETKWGVAIADSIEGPYIRSEYNPITNSGHETCLWQYKEGMAAFLRTDGVEKNTLQFAEDGINFQIMSVIKWGPEACGPYRPDEIITDDPLEGMKWGMSHSLGKPGCPYGCLVRFDINTKQRDIYAARKKYEEGHHHHHH | soluble |
| MGFEDLVEVTTMIADLTTDQREALLLTQLLGLSYADAAAVCGCPVGTIRSRVARARDALLADAEPDDLTG | soluble |
| MGSDKIHHHHHHMQNTSYIALSRQAALWRQMEVVANNMANANTPAFKGEEMMFREFLVPTRSSERAIGGKLAFVQDVGVLRDTREGPLTKTDNPLDFALHGDGYFQIETEAGMRYARNGHFRLDQTGMLVNSQGYAVMDDRDQPIVFAPNETRVEVASDGTVSTENGRVARMKVVKFENDQLLRKAGDSLFETTQDPEAVQSPNVAQGMMEESNVQPVLEMTRMTQILREYQGVQKMLDAEHERQLKAIQTLGSSKTN | not soluble |
| MKDSLQTIGVFVRPTHYQNPLFEKLEQAKEWVLKLLEDEGFESFMIDSLDGAKDARLIEKADAFLCLGGDGTILGALRMTHSYNKPCFGVRIGNLGFLSAVELNGLKDFLQDFKQDRIKLEEHLALEGRIGKTSFYAINEIVIAKKKALGVLDIKAYAGHTPFNTYKGDGLIIATPLGSTAYNLSAHGPIVHALSQSYILTPLCDFSLTQRPLVLGAEFCLNFCAHEDALVVIDGQATYDLKANQPLYIQKSPTTTKLLQKNSRDYFKVLKEKLLWGESPSKKRLEHHHHHH | soluble |
| MKGNFVVSKEDWSLHRKGYDDQKRHQEKVKEAIKNNLPDLITEESIIMSNGRDVIKIPIRSLDEYKIRYNYEKNKHVGQGNGDSQVGDVVARDGSGEGQGPGKGQGAGDLPGQDYYEAEVSLMEIEEAFFSQLELPNLQRKELDQNVTQHIEFNDIRRTGLMGNIDKKRTMLAAFKRNAMNGKPGFYPIYREDLKFKTWNEVVKPESKAVVLAMMDTSGSMGMWEKYMARSFFFWMTRFLRTKYETVEIAFIAHHTEAKVVTEEEFFTKGESGGTICSSAYRKALELIETKYSPSRYNIYPFHFSDGDNLTSDNARCVKLVQELMKVSNMFGYGEVNQYNRHSTLMSAYRNIKDEKFRYYILKQKSDVFHAMRTFFRKEESKQLV | not soluble |
| MKTTTATNSILFKLYFAPGATEQISIEYYNLQQLIEKLELKLGELGLNFNVVFWKNDKGNLISMSQNAQRVLKKMANRDSASIFVIADSDSSDSSSDSSDSGDEDVIIADAPEVAPHRRHCGRRDRSRSRGFDRSRSRSRSRSNFHDHHKRHQMKKLMWKRFQESHGHPEFKRRHCFGGRRARSASPIGRRPCREGEEFKRHPLGSFGTPCGREEFEGPTGGFGRPFGRRGMDHHGFNFHRHHHPFGAFHGFGGHHHGFGHGFGHHGFKRQHPFERRFGRC | not soluble |
| MPYDFYTDGSALGNGQQGSRGGYGVHVPSDTSKNVSGSYPHGPQTNNRYELEAIKHATQMARDVPDSHVRIHTDSKNAKDSVTKWNDNWKSNGYKTSSGQDVKNQDLIRDIDRNVQALKHSGKTVEFEHVRGHSNRMYI | not soluble |
| MSIRSLGYLRIEATDMAAWREYGLKVLGMVEGKGAPEGALYLRMDDFPARLVVVPGEHDRLLEAGWECANAEGLQEIRNRLDLEGTPYKEATAAELADRRVDEMIRFADPSGNCLEVFHGTALEHRRVVSPYGHRFVTGEQGMGHVVLSTRDDAEALHFYRDVLGFRLRDSMRLPPQMVGRPADGPPAWLRFFGCNPRHHSLAFLPMPTSSGIVHLMVEVEQADDVGLCLDRALRRKVPMSATLGRHVNDLMLSFYMKTPGGFDIEFGCEGRQVDDRDWIARESTAVSLWGHDFTVGARG | soluble |
| MALDLTGYLDRINYRGATDPTLDVLRDLVSAHTGAIAFENLDPLMGVPVDDLSAEALADKLVDRRRGGYCYEHNGLIGYVLAELGYRVRRLAGRVVWLAPPDAPTPAQTHTVLAVTFPGCQGPYLVDVGFGGMTPTAPLRLETGTVQQTALEPYRLDDRGDGLVLQAMVRDEWQALYEFSTLTRPQVDLRVGSWFVSTHPTSHFVTGLMAATVADDARWNLMGRNLAIHRRGGTEKILLEDAAAVVDTLGDRFGINVADVGERGRLEARIDKVCFGAENR | soluble |
| GHMSVYHHILLAVDFSSEDSQVVQKVRNLASQIGARLSLIHVLDNIPMPDTPYGTAIPLDTETTYDAMLDVEKQKLSQIGNTLGIDPAHRWLVWGEPREEIIRIAEQENVDLIVVGSHGRHGLALLLGSTANSVLHYAKCDVLAVRLRDD | soluble |
| MAHHHHHHMSNCPHPRGDCGGRSVAAEGTLVPSHISCGDFTFQGGQTPRKELAGVHTSALMQPGLSSAVPSNSILSFSHDVVAAGNGMPPSVSPASSEKKKVLGTSGGGGSAEGTLNSANSSDQGPTGTPVKRNTKPLVPQQHVTKCQLTPNDAAASGLLITTPETPCNEKNPVYAAVGAARQSRERMISAENFTVIQPGGKLRTHLPPQRESGSDKKGKK | soluble |
| MGTKLPRKLEQKMQIVGEQIKLARLRRNLSIAQIAERATCSPLTVGRIEKGSPTVAIGIYARVLYALQLEDDLLHLAGADELGRRLQDLSLINRRRASKKG | not soluble |
| MRDLKIVNGDLSFIDYGILLVEGDLELAQSVFMILSIRLEEFKLDTSVGLESDNMFGKNYNEDYLKQDITEAILDQEPRINSIENIEIVRNNRQLNITVEMLSTLGDEVEVVIRA | not soluble |
| MGICVVIPAFNAALTIEAVVRETLEQGLPLVVVDDGSEDGTADCVRGLPVNLVSHGRNRGKGAALKTGFAWALEYGFSGVITLDSDGQHDPTAITLLAETAKNDGWDILVASRFAQFNQMAGLRRHWNRFGAWCMKKRTGFQIDDSQSGFRYYSARLLRMVSLGKDGYDLEMEILMKAWQAGCTIGSVPVPARVADGRATSHFRPVRDTWNICMTFLRYMLEHHHHHH | not soluble |
